Source: patent US20230348572A1
Like-named read-outs stand apart in the source and are kept apart here.

What was measured:
[1] = target: RBD-6H (amino acid 340-538; NITN.GPKK), biotinylated (SARS-CoV-2) (UniProt P0DTC2)
[2] = target: RBD (amino acids 340-538 NITN.GPKK) expressed on the surface of MDCK-SIAT1 cells (SARS-CoV-2) (UniProt P0DTC2)
[3] = target: RBD-6H (amino acid 340-538; NITN.GPKK), biotinylated (SARS-CoV-2) (UniProt P0DTC2); remark: listed apart in the source

Substance | IC50 [1] | IC50 [2] | IC50 [3]
CR3022-Fc (antibody) | 803 nM | – | –
H11-H4-Fc (Fc fusion) | – | 34 nM | 61 nM
VHH72-Fc (Fc fusion) | – | 33 nM | 262 nM
